What all share (format): binding
The test system of one test is GINS. Briefly: Competition of PolE2-N with TopBP1 for immobilised GINS. As to conditions: 150 mM NaCl; ten times molar excess of PolE2-N. An excerpt:
(§1) We next explored the relationship between the interactions of TopBP1 and DNA Polε with GINS. These proteins are part of the recently characterised metazoan pre-LC[37]–[40]. […] These pre-LC models are less informative on how DNA Polε affects the TopBP1-GINS interaction. The N-terminal region of PolE2 (PolE2-N; aa 1–75) binds GINS mainly at the Psf1-B domain, with minor interactions with residues in the A-domain that partly overlap with the TopBP1-BRCT4 interaction surface (Fig. 7a–c). To test if the Psf1-B domain is required for TopBP1 interaction, we did pulldowns with GINS lacking the Psf1-B domain (Psf1-ΔB). […] This could be due to a residual affinity of BRCT4 for Psf1-ΔB or due to the GINI-Psf1 interaction. We therefore analysed specifically the interaction of GINS with BRCT4 using the TopBP1-Gcc mutant. […] The moderate effect of the B domain deletion on BRCT4 binding is consistent with the partial overlap of the BRCT4 and PolE2 binding sites in Psf1. […] Together, in pre-LC, TopBP1 likely binds GINS through the GINI region, potentially also involving a residual affinity of BRCT4 for GINS despite the presence of DNA Polε. TopBP1 and GINS are likely further stabilised in pre-LCs via their interactions with DONSON[37],[38],[41]. […]

The test system of test [1] is GINS lacking the Psf1-B domain (Psf1-ΔB). The experiment in a line: Pulldown of TopBP1 versions by GINS with Psf1-ΔB compared to GINS-WT. As to conditions: GINS-WT vs Psf1-ΔB.
Source text: as §1

Another test deals with GINS complex. Briefly: Size exclusion chromatography co-elution with GINS. The settings on record: Superdex200; 20 µM of each component; 10 mM HEPES pH 7.5, 150 mM NaCl, 0.5 mM TCEP. The method, then: Recombinant TopBP1 and GINS proteins were mixed in an equimolar ratio to give a final concentration of 20 µM of each component and incubated on ice for at least 30 min prior to application to a Superdex200increase 10 300 column (GE Healthcare, Little Chalfont, UK) equilibrated in 10 mM HEPES pH 7.5, 150 mM NaCl, 0.5 mM TCEP.

The text below walks through data of PMC10899662, “TopBP1 utilises a bipartite GINS binding mode to support genome replication” (Nature Communications, 2024).

Changes are numbered by the printed parent chain.

B1: TopBP1-BRCT0-5-WT: recombinant TopBP1 amino acids 1–766, strep-tagged (protein)
chain: MSRNDKEPFFVKFLKSSDNSKCFFKALESIKEFQSEEYLQIITEEEALKIKENDRSLYICDPFSGVVFDHLKKLGCRIVGPQVVIFCMHHQRCVPRAEHPVYNMVMSDVTISCTSLEKEKREEVHKYVQMMGGRVYRDLNVSVTHLIAGEVGSKKYLVAANLKKPILLPSWIKTLWEKSQEKKITRYTDINMEDFKCPIFLGCIICVTGLCGLDRKEVQQLTVKHGGQYMGQLKMNECTHLIVQEPKGQKYECAKRWNVHCVTTQWFFDSIEKGFCQDESIYKTEPRPEAKTMPNSSTPTSQINTIDSRTLSDVSNISNINASCVSESICNSLNSKLEPTLENLENLDVSAFQAPEDLLDGCRIYLCGFSGRKLDKLRRLINSGGGVRFNQLNEDVTHVIVGDYDDELKQFWNKSAHRPHVVGAKWLLECFSKGYMLSEEPYIHANYQPVEIPVSHKPESKAALLKKKNSSFSKKDFAPSEKHEQADEDLLSQYENGSSTVVEAKTSEARPFNDSTHAEPLNDSTHISLQEENQSSVSHCVPDVSTITEEGLFSQKSFLVLGFSNENESNIANIIKENAGKIMSLLSRTVADYAVVPLLGCEVEATVGEVVTNTWLVTCIDYQTLFDPKSNPLFTPVPVMTGMTPLEDCVISFSQCAGAEKESLTFLANLLGASVQEYFVRKSNAKKGMFASTHLILKERGGSKYEAAKKWNLPAVTIAWLLETARTGKRADESHFLIENSTKEERSLETEITNGINLNSDTAEHP
modifications: left off: Strep, C-terminal, kept
notes: recombinant TopBP1 amino acids 1–766, strep-tagged
In the case of B1, the “competition by PolE2-N in stringent pulldown conditions” value with GINS is “largely resistant to PolE2 competition”. Besides, the “effect of Psf1-B domain deletion on TopBP1 binding, 100 mM NaAc” value in test [1] is given as “the B domain had no influence”. The “co-elution with GINS from size exclusion column” value with GINS complex is listed as “co-eluted with the GINS complex”.

B2: TopBP1-B4mut: Val590, Thr606 and Val610 mutated to glutamate, arginine and glutamate (protein)
chain: B1 chain with V590E, T606R, V610E
modifications: left off: Strep, C-terminal, kept
Regarding B2, the “effect of Psf1-B domain deletion on TopBP1 binding, 100 mM NaAc” value in test [1] is “the B domain had no influence”.
